Measured values as given in article PMC5099943, “Recombinant L-asparaginase 1 from Saccharomyces cerevisiae: an allosteric enzyme with antineoplastic activity” (Scientific Reports, 2016).

Key:
[1] = substrate: NC(=O)C[C@H](N)C(=O)O; assay: purified protein; settings: 50 mM Tris-HCl pH 8.0, 37 °C, nH 1.1 ± 0.1
[2] = substrate: NC(=O)C[C@H](N)C(=O)O; assay: purified protein; format: biochemical, Saccharomyces cerevisiae; settings: 50 mM Tris-HCl pH 8.0, 37 °C, no L-glutamine, sigmoidal, nH 2.2 ± 0.3

Protein	Km [1] [µM]	Vmax [1] [µmol/min]	kcat [1] [s⁻¹]	kcat/Km [1] [M⁻¹ s⁻¹]	K0.5 [2] [µM]	Vmax [2] [µmol/min]	kcat [2] [s⁻¹]
EcASNase2 (L-ASNase type II from Escherichia coli, commercial) (Escherichia coli K-12) (protein) LPNITILATGGTIAGGGDSATKSNYTVGKVGVENLVNAVPQLKDIANVKGEQVVNIGSQDMNDNVWLTLAKKINTDCDKTDGFVITHGTDTMEETAYFLDLTVKCDKPVVMVGAMRPSTSMSADGPFNLYNAVVTAADKASANRGVLVVMNDTVLDGRDVTKTNTTDVATFKSVNYGPLGYIHNGKIDYQRTPARKHTSDTPFDVSKLNELPKVGIVYNYANASDLPAKALVDAGYDGIVSAGVGNGNLYKSVFDTLATAAKTGTAVVRSSRVPTGATTQDAEVDDAKYGFVASGTLNPQKARVLLQLALTQTKDPQQIQQIFNQY	23 ± 5	0.032	134	5.8e+06			
ScASNase1 (L-asparaginase 1) (Saccharomyces cerevisiae S288C) (protein) LPRIKILGTGGTIASKAIDSSQTAGYHVDLTIQDLLDAIPDISKVCDIEYEQLCNVDSKDINEDILYKIYKGVSESLQAFDGIVITHGTDTLSETAFFIESTIDAGDVPIVFVGSMRPSTSVSADGPMNLYQAICIASNPKSRGRGVLVSLNDQISSGYYITKTNANSLDSFNVRQGYLGNFVNNEIHYYYPPVKPQGCHKFKLRVDGKHFKLPEVCILYAHQAFPPAIVNLVADKYDGIVLATMGAGSLPEEVNETCMKLSLPIVYSKRSMDGMVPIANVPKKGSKEDNLIASGYLSPEKSRILLQLCLAGNYTLEEIKHVFTGVYGG					75 ± 27	0.042	217 ± 14
